The assay deals with OB-R (leptin receptor) expressed by rabbit endometrial cells (rEEC and rESC) (rabbit). Put plainly: competition with 125I-human leptin for OB-R in rabbit endometrial cell lysates (rEEC and rESC), PEG precipitation.

These results are taken from patent US20050250690A1.

What is called Ki is the dissociation constant of the complex between target and ligand, obtained from inhibition or displacement. Low readings indicate higher affinity, high ones lower affinity.

SRNVIQISNDLENLRDLLHVLAFSKS [LPA-2 (leptin peptide antagonist 2; residues 70-95 of helix III of the human leptin molecule)]: the Ki worked out at 0.06 nM.
